# ± gives the standard deviation of the averaged measurements.
# System: ATP
# Assay: switch fluorescence ratio, 500 uM ATP over buffer (Cy3 cluster intensity, sum of 5 cycles each) (fold (ratio)); higher = stronger signal-on switching upon ATP binding; sequences stand for … in TCGTCGGCAGCGTCAGATGTGTATAAGAGACAGTTTTTTTTTTTTTTTTTTTTTTTTT…TC
# Details: aptamer strand: ATP DNA aptamer (quencher-CACCTGGGGGAGTATTGCGGAGGAAGG + anchor), 100 nM annealed; ATP concentration: 500 uM
# Procedure, shortened: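 Cy3-labelled switching-strand clusters on a modified Illumina MiSeq flow-cell were annealed to 100 nM quencher-labelled ATP aptamer and imaged first in selection buffer, then after 15 min with 500 uM ATP at 22 °C. NaOH stripping and re-annealing separated each of five buffer/ATP cycles, and clusters outside 100-1000 RFU were excluded. The fluorescence ratio sums target-cycle Cy3 intensity over buffer-cycle Cy3 intensity per cluster and averages it per switch-domain sequence.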
# 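Also: ATP exposure 15 min at 22 °C before imaging.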
row,Sequence,switch fluorescence ratio
1,TTTATCGTTG,0.998 ± 0.025
2,TTTGCTTCGT,1.04 ± 0.048
3,CTATCAGCTA,1.1 ± 0.03
4,AGAGATTGGG,0.965 ± 0.017
5,TTTAGGCTGG,0.979 ± 0.022
6,TACGTTAGTA,1.02 ± 0.033
7,GGATAGGTAT,1.02 ± 0.066
8,TGAGTACCGG,1.08 ± 0.1
9,ATAACACAGG,1.279 ± 0.0016
10,TAGTTTTTAA,1.01 ± 0.008
11,CGGTATGAGG,0.9 ± 0.11
12,CTTTTTTGGG,1.01 ± 0.014
13,TCGAATATTT,1.02 ± 0.073
14,AAGGGTGCTA,0.9787 ± 0.0016
15,GTGTTATGAG,0.995 ± 0.067
16,TCTAGTCGAA,1.02 ± 0.036
17,GCGGGCTAAC,1.17 ± 0.24
18,TGACGGTGTG,0.973 ± 0.02
19,AGTGAGCTTG,0.9818 ± 0.0038
20,GGCATAGGTA,1.01 ± 0.012
21,TTTCCGATTT,0.9886 ± 0.0024
22,TGCAACGTCG,0.998 ± 0.019
23,CGACCCTGGA,1.105 ± 0.01

row,Sequence,switch fluorescence ratio
1,ACCTGTATA,1.054 ± 0.0037
2,TCCTTTAAAT,1.13 ± 0.0032
3,CTTTTGGTTT,0.975 ± 0.032
4,TGGATCATTT,0.999 ± 0.022
5,GACTATGAGG,1.02 ± 0.095
6,ATTGAATGGC,1.04 ± 0.068
7,AGGGGCGGTT,0.978 ± 0.02
8,AGCCCGCGCA,1.03 ± 0.028
9,AGGGTCGCGT,0.989 ± 0.034
10,CTCAGACGGA,1 ± 0.043
11,ATACTGGAAA,1.011 ± 0.01
12,TCACTTAGAA,1.04 ± 0.016
13,AATGGAGTTT,1 ± 0.023
14,ATCCGCGGTG,1.18 ± 0.075
15,TTTTGACCGC,1.09 ± 0.061
16,TTATGGTTAG,1.008 ± 0.0092
17,GAATCGGGGA,1.012 ± 0.0031
18,GCTAGTGCTA,0.996 ± 0.04
19,TTTAGCGTTT,0.997 ± 0.051
20,GGGGAGACGA,1.04 ± 0.022
21,TGGGACGTTT,0.934 ± 0.046
22,AGGTGGGCGC,0.94 ± 0.07
23,TACGGGGGG,1.02 ± 0.035

row,Sequence,switch fluorescence ratio
1,CACCAGGGCT,1.6 ± 0.051
2,CGGGCTTATT,0.988 ± 0.02
3,TATGGGTAGC,0.986 ± 0.019
4,GGATTTTGGC,0.99 ± 0.019
5,TGGCCCGGGC,1.02 ± 0.017
6,CGTACTTGTT,1.01 ± 0.035
7,GTTGGAGATT,0.961 ± 0.042
8,ATACGTTCGG,1.01 ± 0.0015
9,CTGTGGTATT,0.985 ± 0.018
10,GAGGGGTAAG,1 ± 0.015
11,AGTGGAGTCA,1.02 ± 0.035
12,ATTTGGTTGG,0.987 ± 0.044
13,GTTAGATACG,1 ± 0.028
14,CTAGTGGTGA,0.972 ± 0.015
15,GAGGTGAGAC,1.06 ± 0.13
16,CGAAGTCTTT,0.989 ± 0.044
17,GAATGGCCAG,0.992 ± 0.034
18,GTAAAAACTC,1.03 ± 0.024
19,GATGCTTCTT,0.985 ± 0.019
20,GAGATAGAGA,1.02 ± 0.03
21,TTCCATTAGT,1.01 ± 0.035
22,TATTTTTAAA,1.02 ± 0.028
23,TCTTGGCCAT,1.24 ± 0.32

row,Sequence,switch fluorescence ratio
1,TTTTATAGAT,0.977 ± 0.015
2,GATGGATAGG,0.9804 ± 0.0043
3,TTGATTGGTC,1.05 ± 0.019
4,ATTTGGGGGT,0.997 ± 0.023
5,AATCGCTTGG,0.9965 ± 0.006
6,GGTCTGTTGT,0.99 ± 0.049
7,AGTGGCATAG,0.996 ± 0.022
8,TTTTTAGTTT,0.987 ± 0.028
9,ATAGCAGGTG,2.9 ± 1.1
10,TTAAATGGTT,0.9783 ± 0.0076
11,GCCCAACTGT,1 ± 0.036
12,ATGGTTGAGC,1.03 ± 0.024
13,GACAGGTGGG,1.07 ± 0.059
14,CAGTAAAAGG,1.01 ± 0.028
15,ATAAACCTAA,1.05 ± 0.024
16,GAGATGTGCG,0.9319 ± 0.008
17,GTAGTGCCAG,1.02 ± 0.042
18,AGATGTTTGT,1.01 ± 0.038
19,TTGTAAATT,1.02 ± 0.043
20,GGCGGCGCAA,1.51 ± 0.16
21,AGGGCAGGTA,1 ± 0.015
22,TGTCTGCTTT,0.997 ± 0.043
23,AACCAATCGA,1.04 ± 0.05

row,Sequence,switch fluorescence ratio
1,GAAAAAGAGG,0.985 ± 0.019
2,TTTGCTTAGG,0.993 ± 0.037
3,ATGCGCAGGG,1.04 ± 0.051
4,AGTATCACAG,0.9621 ± 0.0047
5,TAGAAAGGCC,1.03 ± 0.037
6,ATGGTATTTC,0.9887 ± 0.0013
7,GGGTGCTGCT,0.954 ± 0.033
8,TTTCGAAGGG,1.04 ± 0.07
9,ACGGGGTTGT,1 ± 0.024
10,GCGGTGAGAT,0.989 ± 0.012
11,AATTTGAATT,0.98 ± 0.013
12,TCTTAGGGAT,1 ± 0.052
13,TCGGAAGGCT,0.999 ± 0.089
14,CATTATCATT,0.97 ± 0.018
15,ATTTGTTTCT,0.9993 ± 0.0079
16,TGGATTCCTA,1.002 ± 0.01
17,GCTTGGCTGT,0.999 ± 0.017
18,AAATGCTTCA,1.03 ± 0.019
19,TGTTATAGAC,1.05 ± 0.041
20,GCCTTTTGTT,0.995 ± 0.027
21,ATTTGGACGG,0.948 ± 0.026
22,AAGTGGTCAC,1.01 ± 0.029
23,AATGTTGTGG,0.985 ± 0.031

row,Sequence,switch fluorescence ratio
1,ATTTCAAAAG,0.974 ± 0.023
2,GATTTTCACT,0.9903 ± 0.0092
3,ATTCATGGGT,0.998 ± 0.024
4,TGGGCTTCAT,0.998 ± 0.028
5,TGGTTCTTTT,1.02 ± 0.056
6,TTAAGGGGGC,0.969 ± 0.042
7,AGATGGGTAC,1.03 ± 0.029
8,TAAAAGTGTT,1.07 ± 0.059
9,AAGGGGGGCG,1.02 ± 0.037
10,TTAAGTTATT,1.03 ± 0.056
11,ATCGGAGCGG,1.02 ± 0.031
12,TTTAGCTAGG,1.01 ± 0.033
13,AATTCGATAG,0.966 ± 0.0039
14,TCTTTTTTGC,0.986 ± 0.073
15,CGCGAAAGAA,0.9682 ± 0.0033
16,ACGGTGAACC,0.989 ± 0.06
17,GCCGCTGGTG,1.22 ± 0.077
18,GAATTGGTTT,0.999 ± 0.017
19,ACGGACCATG,1.11 ± 0.042
20,CCTAGGGTTA,1.01 ± 0.074
21,AGCATACCTT,1.11 ± 0.17
22,TAGTTACTGG,1.05 ± 0.021
23,TGGGGGACTG,1.05 ± 0.054

row,Sequence,switch fluorescence ratio
1,CATTTGTGGC,0.961 ± 0.058
2,CGTAATTTTC,1.09 ± 0.083
3,TCCGGGAAAT,2.88 ± 0.66
4,ACAGATGAGC,1.01 ± 0.056
5,TAATCCATTT,1.02 ± 0.036
6,TTTTCCCTGC,1.24 ± 0.11
7,TAATGTATTT,1.01 ± 0.02
8,TAGATGGCGG,1 ± 0.013
9,GACATTCTCG,1.005 ± 0.0086
10,TGGATTTGGG,0.9969 ± 0.0066
11,TTTGTATTTT,0.992 ± 0.026
12,ACTGGGTTGG,0.9922 ± 0.0074
13,ACTTACGGTT,1.32 ± 0.18
14,ACTAATGGCT,1.01 ± 0.02
15,CGTGGCGGAT,0.9709 ± 0.0092
16,ACTAAAGACA,1.0077 ± 0.00019
17,ATTTTCGGAT,0.975 ± 0.01
18,TAGGCCATAG,1.008 ± 0.0055
19,TATGCGATTG,1.04 ± 0.019

# — the supplement of paper PMC10126150
